This is an account of results in the Immune Epitope Database (IEDB).

The target of test [1] is HLA-B*57:01. The experiment in a line: IEDB peptide-MHC binding, purified MHC/competitive/radioactivity; filed as Kd, often an IC50 or EC50 that approximates it; ≥ and ≤ were set here for values at or beyond the usual limits of such assays.
In test [2] the target is HLA-B*58:01. Described as above.
In a further test the target is HLA-B*45:06. The experiment in a line: IEDB peptide-MHC binding, purified MHC/competitive/fluorescence; filed as Kd, often an IC50 or EC50 that approximates it; ≥ and ≤ were set here for values at or beyond the usual limits of such assays. The following applies: source organism: Mycobacterium tuberculosis H37Rv.
A further test concerns the target HLA-B*15:42. The description is as above. The following applies: source organism: Mycobacterium tuberculosis H37Rv.
The next test addresses HLA-B*83:01. Described as above. The following applies: source organism: Mycobacterium tuberculosis H37Rv.
The next test addresses HLA-C*07:02. In words: IEDB peptide-MHC binding, purified MHC/direct/fluorescence; filed as Kd, often an IC50 or EC50 that approximates it; ≥ and ≤ were set here for values at or beyond the usual limits of such assays. The following applies: source organism: Human herpesvirus 4 strain B95-8.
The target in the next test is HLA-C*03:03. The description is as above.
A further test deals with HLA-A*03:01. The experiment in a line: IEDB peptide-MHC binding, purified MHC/competitive/fluorescence; filed as Kd, often an IC50 or EC50 that approximates it; ≥ and ≤ were set here for values at or beyond the usual limits of such assays.
The target of a further test is HLA-B*39:01. The description is as above.
The next test concerns the target HLA-A*02:01. Described as above.
The target in another test is HLA-A*02:19. Described as above.
Another test has as its target HLA-A*24:03. Described as above.
The next test concerns the target HLA-A*69:01. Described as above.
The target of another test is HLA-A*68:02. The test is described as above. The following applies: source organism: Escherichia coli str. K-12 substr. W3110.
A further test deals with HLA-B*27:03. Described as above.
For the next test, the target named is HLA-B*18:01. The description is as above.
The next test addresses HLA-B*15:17. The test is described as above.
Another test concerns the target HLA-A*02:12. The description is as above.
The target in test [3] is HLA-B*57:01. The description is as above.
The next test concerns the target HLA-B*46:01. Described as above.
The target of the next test is HLA-B*51:01. The test is described as above.
The target of a further test is HLA-A*26:01. The description is as above.
The target of the next test is HLA-C*15:02. The experiment in a line: IEDB peptide-MHC binding, purified MHC/direct/fluorescence; filed as Kd, often an IC50 or EC50 that approximates it; ≥ and ≤ were set here for values at or beyond the usual limits of such assays. The following applies: source organism: Bacillus cereus G9241.
Another test deals with HLA-A*02:03. The experiment in a line: IEDB peptide-MHC binding, purified MHC/competitive/fluorescence; filed as Kd, often an IC50 or EC50 that approximates it; ≥ and ≤ were set here for values at or beyond the usual limits of such assays. The following applies: source organism: Bacillus cereus G9241.
In test [4] the target is HLA-B*15:01. The description is as above.
In a further test the target is HLA-B*35:01. Described as above.
The next test has as its target HLA-A*01:01. The experiment in a line: IEDB peptide-MHC binding, purified MHC/competitive/radioactivity; filed as Kd, often an IC50 or EC50 that approximates it; ≥ and ≤ were set here for values at or beyond the usual limits of such assays. The following applies: source organism: Dengue virus 2 Jamaica/1409/1983.
The next test has as its target HLA-B*53:01. The description is as above. The following applies: source organism: Dengue virus 2 Jamaica/1409/1983.
Test [5] deals with HLA-B*15:01. In words: IEDB peptide-MHC binding, purified MHC/direct/fluorescence; filed as Kd, often an IC50 or EC50 that approximates it; ≥ and ≤ were set here for values at or beyond the usual limits of such assays. The following applies: source organism: Reston ebolavirus - Reston.
Test [6] has as its target HLA-B*58:01. The test is described as above. The following applies: source organism: Reston ebolavirus - Reston.
Another test deals with HLA-A*32:01. The experiment in a line: IEDB peptide-MHC binding, purified MHC/competitive/radioactivity; filed as Kd, often an IC50 or EC50 that approximates it; ≥ and ≤ were set here for values at or beyond the usual limits of such assays. The following applies: source organism: Dengue virus 4 Philippines/H241/1956.
The target in the next test is HLA-A*11:01. In words: IEDB peptide-MHC binding, purified MHC/competitive/fluorescence; filed as Kd, often an IC50 or EC50 that approximates it; ≥ and ≤ were set here for values at or beyond the usual limits of such assays.
[7] abbreviates: source organism: Dengue virus 1 Brazil/97-11/1997.
Setting [8] is: source organism: Dengue virus 2 Jamaica/1409/1983.
[9] abbreviates: source organism: Escherichia coli str. K-12 substr. W3110.
Where [10] appears, read: source organism: Bacillus cereus G9241.
The mark [11] stands for this setting: source organism: Bacillus anthracis str. A0488.
[12] abbreviates: source organism: Vibrio vulnificus CMCP6.
[13] abbreviates: source organism: Reston ebolavirus.
Where [14] appears, read: source organism: Dengue virus 4 Philippines/H241/1956.
[15] abbreviates: source organism: Mycobacterium tuberculosis variant bovis BCG str. Pasteur 1173P2.

Usually Kd stands for the constant that tells how readily two partners part at equilibrium. With ASSALLWMAS, the Kd in the test with HLA-B*57:01 [1] (setting [7]) is 17.1 µM; in the test with HLA-B*58:01 [2] (setting [7]) it was 17 µM.
As to ASSLLKNDIP, the Kd turned out to be 8.58 µM with HLA-B*57:01 [1] (setting [8]) and 2.1 µM with HLA-B*58:01 [2] (setting [8]).
As to FPRIGTAVF, the Kd with HLA-B*45:06 is ≥ 5 µM; with HLA-B*15:42 it was ≥ 5 µM; with HLA-B*83:01 it was 8.31 µM.
FYNIPPMPL: the results for the Kd with HLA-C*07:02 and with HLA-C*03:03 (source organism: Human herpesvirus 4 strain B95-8) were 0.043 µM and 0.051 µM, respectively.
For the sequence IQFDWYPTS, the Kd with HLA-A*03:01 (setting [9]), with HLA-B*39:01 (setting [9]), in the test with HLA-A*02:01 (setting [9]), with HLA-A*02:19 (setting [9]), with HLA-A*24:03 (setting [9]) and in the test with HLA-A*69:01 (setting [9]) was ≥ 20 µM throughout. In addition, the Kd with HLA-A*68:02 is ≥ 20 µM; with HLA-B*27:03 (setting [9]) it was ≥ 20 µM; in the test with HLA-B*18:01 (setting [9]) it was ≥ 20 µM; in the test with HLA-B*15:17 (setting [9]), ≥ 20 µM; with HLA-A*02:12 (setting [9]), 0.624 µM; with HLA-B*57:01 [3] (setting [9]), ≥ 20 µM. Also, the Kd in the test with HLA-B*46:01 (setting [9]), with HLA-B*51:01 (setting [9]) and with HLA-A*26:01 (setting [9]) was ≥ 20 µM throughout.
For the sequence ITNPFFYQM, the Kd is 0.056 µM with HLA-C*15:02; ≥ 20 µM with HLA-A*03:01 (setting [10]); ≥ 20 µM with HLA-B*39:01 (setting [10]); ≥ 20 µM with HLA-B*27:03 (setting [10]); ≥ 20 µM in the test with HLA-B*18:01 (setting [10]); ≥ 20 µM with HLA-A*02:03. For the same sequence, the Kd with HLA-B*57:01 [3] (setting [10]) was 0.27 µM; in the test with HLA-A*26:01 (setting [10]), ≥ 20 µM.
IVVDNTSAF: the Kd with HLA-B*15:01 [4] (setting [11]) is 0.0704 µM; in the test with HLA-B*35:01 (setting [11]), 0.0004 µM.
With KAINVLRGF, the figures for the Kd with HLA-B*57:01 [1] (setting [8]) and in the test with HLA-B*58:01 [2] (setting [8]) were 0.00343 µM and 0.043 µM, respectively.
With KSYAQMWQL, the Kd was 0.00198 µM with HLA-B*57:01 [1] (setting [7]) and 0.00783 µM with HLA-B*58:01 [2] (setting [7]).
Regarding LMLHQQYNQ, the Kd in the test with HLA-A*03:01 (setting [12]) was ≥ 20 µM; with HLA-B*39:01 (setting [12]), ≥ 20 µM; with HLA-A*02:01 (setting [12]), 0.191 µM; with HLA-A*02:19 (setting [12]), ≥ 20 µM; with HLA-A*24:03 (setting [12]), ≥ 20 µM; with HLA-B*15:01 [4] (setting [12]), ≥ 20 µM. The Kd with HLA-B*27:03 (setting [12]) is ≥ 20 µM; with HLA-B*18:01 (setting [12]), ≥ 20 µM; in the test with HLA-A*02:12 (setting [12]), 0.186 µM; with HLA-B*57:01 [3] (setting [12]), ≥ 20 µM; with HLA-B*51:01 (setting [12]) it was ≥ 20 µM; with HLA-A*26:01 (setting [12]) it was ≥ 20 µM.
Regarding LTSSQQKADW, the Kd is 11 µM with HLA-A*01:01, 0.1 µM in the test with HLA-B*57:01 [1] (setting [8]), ≥ 21.8 µM with HLA-B*53:01 and 0.0592 µM with HLA-B*58:01 [2] (setting [8]).
For the sequence QAFEAGIDF, the Kd was 0.0766 µM with HLA-B*15:01 [5]; 1.03 µM in the test with HLA-B*58:01 [6]; ≥ 20 µM with HLA-B*39:01 (setting [13]); ≥ 20 µM with HLA-A*02:01 (setting [13]); ≥ 20 µM in the test with HLA-A*69:01 (setting [13]); 0.0002 µM with HLA-B*35:01 (setting [13]). In addition, the Kd with HLA-B*27:03 (setting [13]), with HLA-B*18:01 (setting [13]), with HLA-B*15:17 (setting [13]), in the test with HLA-B*57:01 [3] (setting [13]), in the test with HLA-B*51:01 (setting [13]) and in the test with HLA-A*26:01 (setting [13]) was ≥ 20 µM each time.
For the sequence RSWNTGFDW, the Kd with HLA-A*32:01 is 0.0447 µM; with HLA-B*57:01 [1] (setting [14]), 0.0138 µM; with HLA-B*58:01 [2] (setting [14]) it was 0.0179 µM.
Consider SAFGGGNAF, for which the Kd with HLA-C*03:03 (setting [15]) is ≤ 0.001 µM; with HLA-B*46:01 (setting [15]), 0.0368 µM.
As for SSFSFGGFTFK, the Kd with HLA-A*11:01 (source organism: Influenza A virus H3N2) turned out to be 0.0005 µM.
Turning to TAAVLMLVAH, the Kd with HLA-B*58:01 [2] (setting [7]) came to 5.54 µM.
As for TVFSLLLFY, the equilibrium dissociation constant (Kd) in the test with HLA-A*11:01 (source organism: Yersinia pestis Nepal516) is 0.5 µM.
As for VASGLLWVAE, the Kd is ≥ 70.4 µM in the test with HLA-B*57:01 [1] (setting [14]) and 0.0754 µM in the test with HLA-B*58:01 [2] (setting [14]).
